Reference: paper PMC2110644
Where two headings read alike, the source gives them in different places.

Key:
Assay in all cases: co-sedimentation
[1] = biological target: actin (mol wt = 43,000), platelet (human (endogenous in platelets)) (UniProt P60709)
[2] = biological target: actin (mol wt = 43,000), platelet (human (endogenous in platelets)) (UniProt P60709); remark: listed apart in the source
[3] = biological target: actin (mol wt = 43,000), platelet (human (endogenous in platelets)) (UniProt P60709); remark: listed apart in the source
[4] = biological target: actin (mol wt = 43,000), platelet (human (endogenous in platelets)) (UniProt P60709); remark: listed apart in the source

Sequence of platelet membrane glycoprotein III (P05106 27-788): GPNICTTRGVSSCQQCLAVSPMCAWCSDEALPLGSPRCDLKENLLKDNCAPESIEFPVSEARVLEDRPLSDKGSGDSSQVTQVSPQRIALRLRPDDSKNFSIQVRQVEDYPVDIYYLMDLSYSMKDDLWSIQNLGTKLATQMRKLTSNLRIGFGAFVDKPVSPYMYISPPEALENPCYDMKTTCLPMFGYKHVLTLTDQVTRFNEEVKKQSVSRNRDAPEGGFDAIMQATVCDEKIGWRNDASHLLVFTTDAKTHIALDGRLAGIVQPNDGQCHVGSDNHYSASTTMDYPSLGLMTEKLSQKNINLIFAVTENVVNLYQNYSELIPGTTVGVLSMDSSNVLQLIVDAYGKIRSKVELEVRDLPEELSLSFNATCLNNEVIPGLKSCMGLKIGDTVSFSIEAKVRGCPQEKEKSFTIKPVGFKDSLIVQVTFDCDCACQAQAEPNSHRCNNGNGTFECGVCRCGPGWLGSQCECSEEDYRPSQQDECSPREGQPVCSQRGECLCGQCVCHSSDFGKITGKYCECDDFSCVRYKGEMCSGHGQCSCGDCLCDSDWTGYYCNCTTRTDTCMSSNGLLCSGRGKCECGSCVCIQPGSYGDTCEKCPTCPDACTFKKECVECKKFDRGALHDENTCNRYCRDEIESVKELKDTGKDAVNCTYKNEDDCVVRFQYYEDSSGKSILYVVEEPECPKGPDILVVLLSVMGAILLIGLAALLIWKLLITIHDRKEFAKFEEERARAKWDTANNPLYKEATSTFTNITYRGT
Sequence of platelet membrane glycoprotein IIb (receptor) (P08514 32-1039): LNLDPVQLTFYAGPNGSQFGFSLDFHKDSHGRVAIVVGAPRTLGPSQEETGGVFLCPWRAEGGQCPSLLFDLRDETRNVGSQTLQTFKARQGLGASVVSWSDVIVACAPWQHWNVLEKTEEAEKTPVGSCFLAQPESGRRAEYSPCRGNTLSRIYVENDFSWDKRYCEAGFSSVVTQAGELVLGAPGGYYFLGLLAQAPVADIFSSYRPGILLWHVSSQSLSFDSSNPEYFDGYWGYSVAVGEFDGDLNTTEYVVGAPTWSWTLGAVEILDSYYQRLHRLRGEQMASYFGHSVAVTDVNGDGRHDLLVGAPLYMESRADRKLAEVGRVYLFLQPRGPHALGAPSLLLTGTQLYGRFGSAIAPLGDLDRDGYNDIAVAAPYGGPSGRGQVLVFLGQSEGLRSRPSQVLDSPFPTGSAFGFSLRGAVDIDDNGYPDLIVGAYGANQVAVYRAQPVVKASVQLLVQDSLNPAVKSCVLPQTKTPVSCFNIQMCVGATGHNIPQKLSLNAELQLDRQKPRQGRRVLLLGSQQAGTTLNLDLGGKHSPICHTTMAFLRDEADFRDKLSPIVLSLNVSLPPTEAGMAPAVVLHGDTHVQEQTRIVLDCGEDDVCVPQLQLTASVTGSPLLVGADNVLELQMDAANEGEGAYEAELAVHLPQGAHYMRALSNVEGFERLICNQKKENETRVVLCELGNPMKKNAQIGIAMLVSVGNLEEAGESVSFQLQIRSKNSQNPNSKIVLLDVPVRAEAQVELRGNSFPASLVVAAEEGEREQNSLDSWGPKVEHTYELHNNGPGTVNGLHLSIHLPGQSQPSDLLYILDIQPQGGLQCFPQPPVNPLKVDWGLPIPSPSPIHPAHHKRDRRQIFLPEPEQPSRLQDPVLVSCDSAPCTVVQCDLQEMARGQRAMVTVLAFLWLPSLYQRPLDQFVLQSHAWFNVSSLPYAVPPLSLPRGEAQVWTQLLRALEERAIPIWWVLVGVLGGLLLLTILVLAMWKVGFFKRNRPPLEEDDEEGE

| Substance | percent of the protein in the Triton residue [1] [%] | percent of the protein in the Triton residue [2] [%] | percent of the glycoprotein in the Triton residue [1] [%] | percent of the glycoprotein in the Triton residue [2] [%] | percent of the glycoprotein in the Triton residue [3] [%] | percent of the glycoprotein in the Triton residue [4] [%] |
| --- | --- | --- | --- | --- | --- | --- |
| 255,000 protein (actin-binding protein), platelet (from UniProt P21333 1-2647) (natural protein) | 55.2 | 34.5 |  |  |  |  |
| platelet membrane glycoprotein III (from UniProt P05106 27-788) (receptor) |  |  | 14.3 | 3.4 | 2.4 |  |
| platelet membrane glycoprotein IIb (receptor) |  |  | 26.1 | 7.2 | 5.4 | 3.7 |
